The record followed here is article PMC7716884.

For this test, the target named is insulin lispro. Briefly: SEC-MALS. (In general: SEC sorts molecules by how far they enter the pores of the column.)

For orientation: stoichiometry N means the number of molecules, sites or subunits per partner or assembly.

insulin lispro (ligand): the stoichiometry N is 6.
